For this data set, the system named is Escherichia coli TOP10. As to the kind of experiment: shrunken log2 fold change of peptide-encoding DNA abundance (4.5 h post-induction vs induction); higher = less antimicrobial activity (less host growth inhibition). As to conditions: time post-induction: 4.5 h; library: site-saturation at positions 5, 18, 19, 20.
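Note: peptides expressed intracellularly from a pBAD plasmid library in pooled LB shake-flask culture, induced with 0.3% L-arabinose, DNA abundance read by NGS, three biological replicates, DESeq2 with apeglm shrinkage.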

On to RRIRLRPPRLPRPRPRPPNYPRP, for which the “shrunken log2 fold change” value is -0.23.

As to RRIRTRPPRLPRPRPRPNSRPRP, the “shrunken log2 fold change” value is -0.0848.

As to RRIRRRPPRLPRPRPRPYNTPRP, the “shrunken log2 fold change” value is -0.436.

For the sequence RRIRGRPPRLPRPRPRPCSRPRP, the “shrunken log2 fold change” value came out at 0.0838.

On to RRIRWRPPRLPRPRPRPQIIPRP, for which the “shrunken log2 fold change” value was -0.805.

On to RRIRSRPPRLPRPRPRPNHCPRP, for which the “shrunken log2 fold change” value was -0.415.

Turning to RRIRFRPPRLPRPRPRPCEFPRP, the “shrunken log2 fold change” value came to 0.0635.

As for RRIRFRPPRLPRPRPRPFHHPRP, the “shrunken log2 fold change” value is -0.976.

As for RRIRHRPPRLPRPRPRPNWNPRP, the “shrunken log2 fold change” value is -0.451.

As to RRIRDRPPRLPRPRPRPKSPPRP, the “shrunken log2 fold change” value was 0.0198.

On to RRIRCRPPRLPRPRPRPLGSPRP, for which the “shrunken log2 fold change” value was -0.423.

On to RRIRYRPPRLPRPRPRPRITPRP, for which the “shrunken log2 fold change” value is -0.382.

For the sequence RRIRERPPRLPRPRPRPPVHPRP, the “shrunken log2 fold change” value was -0.145.

For RRIRLRPPRLPRPRPRPFEMPRP, the “shrunken log2 fold change” value is -0.00193.

RRIRCRPPRLPRPRPRPRKCPRP: the “shrunken log2 fold change” value worked out at 0.0179.

Consider RRIRMRPPRLPRPRPRPAYLPRP, for which the “shrunken log2 fold change” value was 0.0142.

For RRIRCRPPRLPRPRPRPCSDPRP, the “shrunken log2 fold change” value is -0.0728.

With RRIRCRPPRLPRPRPRPGISPRP, the “shrunken log2 fold change” value was -0.195.

Regarding RRIRMRPPRLPRPRPRPWEDPRP, the “shrunken log2 fold change” value is -0.0122.

In the case of RRIRRRPPRLPRPRPRPIKSPRP, the “shrunken log2 fold change” value is -0.254.

Consider RRIRDRPPRLPRPRPRPMDTPRP, for which the “shrunken log2 fold change” value is -0.0196.

For RRIRFRPPRLPRPRPRPDNPPRP, the “shrunken log2 fold change” value is -0.0747.

Take RRIRDRPPRLPRPRPRPTAAPRP: the “shrunken log2 fold change” value was 0.457.

As to RRIRDRPPRLPRPRPRPNEVPRP, the “shrunken log2 fold change” value worked out at 0.0348.

Turning to RRIRNRPPRLPRPRPRPKYKPRP, the “shrunken log2 fold change” value is -0.726.

In the case of RRIRWRPPRLPRPRPRPTLIPRP, the “shrunken log2 fold change” value came out at 0.0335.

As for RRIRQRPPRLPRPRPRPLPMPRP, the “shrunken log2 fold change” value was 0.0747.

For RRIRGRPPRLPRPRPRPYEGPRP, the “shrunken log2 fold change” value was -0.199.

RRIRYRPPRLPRPRPRPIWLPRP: the “shrunken log2 fold change” value was -0.175.

For the sequence RRIRQRPPRLPRPRPRPLDCPRP, the “shrunken log2 fold change” value is -0.221.

With RRIRKRPPRLPRPRPRPDVWPRP, the “shrunken log2 fold change” value stood at 0.679.

As to RRIRLRPPRLPRPRPRPEADPRP, the “shrunken log2 fold change” value stood at 0.357.

On to RRIRGRPPRLPRPRPRPKERPRP, for which the “shrunken log2 fold change” value was 0.00594.

In the case of RRIRWRPPRLPRPRPRPGHTPRP, the “shrunken log2 fold change” value is 0.0581.

As for RRIRDRPPRLPRPRPRPPCVPRP, the “shrunken log2 fold change” value turned out to be 0.152.

For RRIRHRPPRLPRPRPRPTLIPRP, the “shrunken log2 fold change” value is 0.0888.

For RRIRDRPPRLPRPRPRPGGDPRP, the “shrunken log2 fold change” value turned out to be 0.908.

RRIRMRPPRLPRPRPRPNFNPRP: the “shrunken log2 fold change” value is -0.23.

In the case of RRIRPRPPRLPRPRPRPLVVPRP, the “shrunken log2 fold change” value was -0.0898.

RRIRFRPPRLPRPRPRPAEIPRP: the “shrunken log2 fold change” value was -0.228.

Regarding RRIRWRPPRLPRPRPRPLIGPRP, the “shrunken log2 fold change” value amounted to 0.0414.

Consider RRIRLRPPRLPRPRPRPLSMPRP, for which the “shrunken log2 fold change” value is -0.163.

On to RRIRHRPPRLPRPRPRPWVCPRP, for which the “shrunken log2 fold change” value was -0.044.

As to RRIRDRPPRLPRPRPRPSSTPRP, the “shrunken log2 fold change” value was 0.00883.

With RRIRARPPRLPRPRPRPYKVPRP, the “shrunken log2 fold change” value was -0.00867.

For the sequence RRIRRRPPRLPRPRPRPRSCPRP, the “shrunken log2 fold change” value stood at 0.182.

On to RRIRSRPPRLPRPRPRPRAWPRP, for which the “shrunken log2 fold change” value was determined as 0.0718.

For the sequence RRIRGRPPRLPRPRPRPNMQPRP, the “shrunken log2 fold change” value came out at 0.492.

Take RRIRTRPPRLPRPRPRPMGSPRP: the “shrunken log2 fold change” value was -0.0908.

Regarding RRIRDRPPRLPRPRPRPYMVPRP, the “shrunken log2 fold change” value was determined as 0.0212.

Take RRIRCRPPRLPRPRPRPWCWPRP: the “shrunken log2 fold change” value came to 0.0184.

Turning to RRIRRRPPRLPRPRPRPDNAPRP, the “shrunken log2 fold change” value was -0.227.

RRIRMRPPRLPRPRPRPRRCPRP: the “shrunken log2 fold change” value came out at 1.08.

Regarding RRIRERPPRLPRPRPRPLEGPRP, the “shrunken log2 fold change” value is -0.363.

Regarding RRIRVRPPRLPRPRPRPKKNPRP, the “shrunken log2 fold change” value turned out to be 0.28.

Regarding RRIRLRPPRLPRPRPRPYMMPRP, the “shrunken log2 fold change” value is -0.594.

Take RRIRQRPPRLPRPRPRPGYQPRP: the “shrunken log2 fold change” value is -0.164.

Take RRIRYRPPRLPRPRPRPPGKPRP: the “shrunken log2 fold change” value is 0.157.

For the sequence RRIRWRPPRLPRPRPRPPGLPRP, the “shrunken log2 fold change” value came to 0.601.

Take RRIRSRPPRLPRPRPRPDAAPRP: the “shrunken log2 fold change” value is 1.05.

For RRIRDRPPRLPRPRPRPTPDPRP, the “shrunken log2 fold change” value was 0.536.

Regarding RRIRHRPPRLPRPRPRPVENPRP, the “shrunken log2 fold change” value was -0.0355.

Regarding RRIRHRPPRLPRPRPRPLACPRP, the “shrunken log2 fold change” value is 0.0188.

With RRIRGRPPRLPRPRPRPSTKPRP, the “shrunken log2 fold change” value came out at 0.261.

RRIRMRPPRLPRPRPRPLRIPRP: the “shrunken log2 fold change” value was determined as 1.06.

On to RRIRWRPPRLPRPRPRPVWSPRP, for which the “shrunken log2 fold change” value is 0.163.

Regarding RRIRQRPPRLPRPRPRPVVDPRP, the “shrunken log2 fold change” value was -0.355.

As to RRIRERPPRLPRPRPRPFDQPRP, the “shrunken log2 fold change” value is -0.0377.

Take RRIRERPPRLPRPRPRPTTYPRP: the “shrunken log2 fold change” value is -0.8.

Turning to RRIRERPPRLPRPRPRPGDMPRP, the “shrunken log2 fold change” value was -0.116.

Turning to RRIRCRPPRLPRPRPRPTKHPRP, the “shrunken log2 fold change” value turned out to be 0.00206.

For RRIRDRPPRLPRPRPRPVMIPRP, the “shrunken log2 fold change” value is 0.0644.

For RRIRNRPPRLPRPRPRPDLVPRP, the “shrunken log2 fold change” value was -0.15.

As to RRIRKRPPRLPRPRPRPGHKPRP, the “shrunken log2 fold change” value turned out to be 0.193.

Turning to RRIRERPPRLPRPRPRPFPSPRP, the “shrunken log2 fold change” value was -0.0393.

Consider RRIRIRPPRLPRPRPRPFVLPRP, for which the “shrunken log2 fold change” value was -0.113.

For RRIRWRPPRLPRPRPRPGNDPRP, the “shrunken log2 fold change” value was 0.895.

RRIRVRPPRLPRPRPRPFINPRP: the “shrunken log2 fold change” value is -0.192.

With RRIRPRPPRLPRPRPRPSDMPRP, the “shrunken log2 fold change” value was -0.273.

As to RRIRGRPPRLPRPRPRPVFRPRP, the “shrunken log2 fold change” value was found to be 0.375.

Turning to RRIRIRPPRLPRPRPRPSSRPRP, the “shrunken log2 fold change” value is -0.538.

RRIRCRPPRLPRPRPRPIVWPRP: the “shrunken log2 fold change” value stood at 0.102.

In the case of RRIRERPPRLPRPRPRPIMFPRP, the “shrunken log2 fold change” value was -0.193.

On to RRIRPRPPRLPRPRPRPHLFPRP, for which the “shrunken log2 fold change” value is -0.0473.

Turning to RRIRFRPPRLPRPRPRPVMWPRP, the “shrunken log2 fold change” value was determined as 0.0942.

Regarding RRIRNRPPRLPRPRPRPSPFPRP, the “shrunken log2 fold change” value was -0.287.

As to RRIRGRPPRLPRPRPRPMLTPRP, the “shrunken log2 fold change” value is 1.04.

With RRIRARPPRLPRPRPRPGGFPRP, the “shrunken log2 fold change” value is 0.518.

As for RRIRCRPPRLPRPRPRPCAAPRP, the “shrunken log2 fold change” value came to 0.514.

Consider RRIRYRPPRLPRPRPRPEHQPRP, for which the “shrunken log2 fold change” value is -0.464.

As to RRIRNRPPRLPRPRPRPLLWPRP, the “shrunken log2 fold change” value came out at 0.369.

Source of the values: the supplement of paper PMC9112550, “Optimization of the antimicrobial peptide Bac7 by deep mutational scanning” (BMC Biology, 2022).
